# Measured values reported in publication PMC9279222, “Human myelin proteolipid protein structure and lipid bilayer stacking” (Cellular and Molecular Life Sciences: CMLS, 2022).
# B1: human DM20 (shorter isoform of myelin proteolipid protein) (natural protein, UniProt P60201-2 1-242, looked up)
# chain: MGLLECCARCLVGAPFASLVATGLCFFGVALFCGCGHEALTGTEKLIETYFSKNYQDYEYLINVIHAFQYVIYGTASFFFLYGALLLAEGFYTTGAVRQIFGDYKTTICGKGLSATFVGITYALTVVWLLVFACSAVPVYIYFNTWTTCQSIAFPSKTSASIGSLCADARMYGVLPWNAFPGKVCGSNLLSICKTAEFQMTFHLFIAAFVGAAATLVSLLTFMIAATYNFAVLKLMGRGTKF
# notes: DM20, minor isoform of human PLP (26 kDa), lacks 35 residues in the intracellular loop; Studied in a detergent complex (DM or UDM); source: Sf21 insect cells (baculovirus), solubilized in DM or UDM, purified (IMAC, TEV cleavage, reverse IMAC, SEC); not shown: eGFP, C-terminal, cleaved; His8, C-terminal, cleaved
# B2: human myelin proteolipid protein (natural protein, UniProt P60201-1 1-277, looked up)
# chain: MGLLECCARCLVGAPFASLVATGLCFFGVALFCGCGHEALTGTEKLIETYFSKNYQDYEYLINVIHAFQYVIYGTASFFFLYGALLLAEGFYTTGAVRQIFGDYKTTICGKGLSATVTGGQKGRGSRGQHQAHSLERVCHCLGKWLGHPDKFVGITYALTVVWLLVFACSAVPVYIYFNTWTTCQSIAFPSKTSASIGSLCADARMYGVLPWNAFPGKVCGSNLLSICKTAEFQMTFHLFIAAFVGAAATLVSLLTFMIAATYNFAVLKLMGRGTKF
# notes: myelin proteolipid protein (PLP), human, 30 kDa; cloned from acc; NM_000533; Studied in a detergent complex (DM, UDM or d-DDM); also called PLP; myelin PLP; source: Sf21 insect cells (baculovirus), solubilized in DM or UDM, purified (IMAC, TEV cleavage, reverse IMAC, SEC); not shown: eGFP, C-terminal, cleaved; His8, C-terminal, cleaved
# Biological target: the molecule itself
# Test: SEC-MALS; protein conjugate analysis; 50 µg protein on Superdex 200 Increase 10/300 in 0.2% DM, 0.3 M NaCl, 0.5 mM TCEP, 5% glycerol, 20 mM Tris pH 7.5; protein-detergent complex
row,Protein,stoichiometry N
1,B1,2
2,B2,2
